Reference: publication PMC8126939, “The TBC1D31/praja2 complex controls primary ciliogenesis through PKA‐directed OFD1 ubiquitylation” (The EMBO Journal, 2021)

B1: peptide of the C-terminus segment of TBC1D31 [human] / GST-praja2_(530–570) [modified: fluorescent dye on primary amines (NHS-ester labelling); fluorescent dye on primary amines (NHS-ester labelling)] [human] (parent complex)
chain 1: WDTTGQNLIKKVRNLRQRLTARARHRCQTPHLLAA
chain 2: LDGNNNLEDDSSVSEDLDVDWSLFDGFADGLGVAEAISYVD

Variants of: B1
Assay: microscale thermophoresis (MST); parent: 3.7e+04 nM

| Kd | Variant |
| --- | --- |
| ~65 µM | chain 1 R13A, chain 1 R16A |
